Laboratory results: the DeepSol protein solubility set

Assay: soluble on expression in E. coli; label from the status in PepcDB or PDB records

Sequence	soluble on expression in E. coli
MTEDNIAPITSVKRLVTDKCTYKDNELLTKYSYENAVVTKTASGRFDVTPTVQDYVFKLDFEKKPEKLGIMLIGLGGNNGSTLVASVLANKHNVEFQTKAKGVKQPNYFGSMTQCSTLKLGIDAEGNDVYAPFNSLLPMVSPKHFVVSGWDINNADLYEAMQRSQVLEYDLQQRLKAKMSLVKPLPSIYYPDFIAANQDERANQCINLDEKGNVTTRGKWTHLQRIRRDIQNFKEENALDKVIVLWTANTERYVEVSPGVNDTMENLLQSIKNDHEEIAPSTIFAAASILEGVPYINGSPQNTFVPGLVQLAEHEGTFIAGDDLKSGQTKLKSVLAQFLVDAGIKPVSIASYNHLGNNDGYNLSAPKQFRSKEISKSSVIDDIIASNDILYNDKLGKKVDHCIVIKYMKPVGDSKVAMDEYYSELMLGGHNRISIHNVCEDSLLATALIIDLLVMTEFCTRVSYKKVDPVKEDAGKFENFYPVLTFLSYWLKAPLTRPGFHPVNGLNKQRTALENFLRLLIGLPSQNELRFEERLL	soluble
MSLSPFEHPFLSGLFGDSEIIELFSAKADIDAMIRFETALAQAEAEASIFADDEAEAIVSGLSEFAADMSALRHGVAKDGVVVPELIRQMRAAVAGQAADKVHFGATSQDVIDTSLMLRLKMAAEIIATRLGHLIDTLGDLASRDGHKPLTGYTRMQAAIGITVADRAAGWIAPLERHLLRLETFAQNGFALQFGGAAGTLEKLGDNAGAVRADLAKRLGLADRPQWHNQRDGIAEFANLLSLVTGTLGKFGQDIALMAEIGSEIRLSGGGGSSAMPHKQNPVNAETLVTLARFNAVQISALHQSLVQEQERSGAGWMLEWLTLPQMVTATGTSLLVAERLAAQIDRLGADESHHHHHH	soluble
MSLATIKDIAKEVGCSISTVSRVLNNDPTLSVGDETRSRIFEVAEEIGYRKKTLKTLVKNIAFLYWLTDNEELEDVYFQTMRVEIEKKARENNIELTTYKLEGGIEKIPLDIDGFIAVGSFMNRELEYLRELTPHGVFIDSTPDPAHYDSVRPDLAQITRQAVEVLVEQGHEKIGFIGGTYHNLDTDAEEMDGRERAFRQTMEERDLLREDFIFCRRGFSVDNGHYLMNQAVEQLGEELPTAFYVAADPIAVGCLQVLNEQQIEIPKRVSLISVNDTSISKYVSPPLTTFHIDLEEICQNAIQLLLERVLKKRNIVKTVYIGAELITRKSTEGHHHHHH	soluble
MSAEFERLLAQFERFQSKIKKVDDQLANVERMQSEIAELEATASNADRSITIVAGPGGAIKDIQLTDKALSQQPQALSAALMSTIQEAVAEAARKQAAIVDDHMGGQLNVTDQVLETQAQLFGTSPQELRERMEQERPIRQTPLRPEEEYHEDYSHQDFLGSDQEQQSPPPPPAPSGGSAGDEFLQNLFNNDDHR	not soluble
MSLTITRIETIPMVAPLAREFRGSHYHMTHRATIVTRVHTDAGIIGEAYTGDEHETMFDIDRIIHEELAPTLIGQDAMAIERLWDSGYKVTFDILRDRRLGLVALAAVNTAIWDAVGKALKMPLWKLWGGYRNELPMIAIGGYYGEPLGSIADEMHNYQELGLAGVKFKVGGLSAAEDAARITAAREAAGDDFIICIDANQGYKPAVAVDLSRRIADLNIRWFEEPVEWHNDKRSMRDVRYQGSVPVCAGQTEFSASGCRDLMETGAIDVCNFDSSWSGGPTAWLRTAAIATSYDVQMGHHEEPQVSTHLLASQPHGTIAECFHPDRDPFWWNMITNRPKLNNGTLTLSDRPGLGWDLNWDYIDQYRVSKDEGHHHHHH	soluble
SGILFMSKVGLRGDRRSEGDEVLDPLRQALDSSMQSHNLYQHPQHLAFHVSAPVASTVQQASGLLGPLPHLSSFALQPAHSLLPPLGSHGAGFQENGAKAES	soluble
MKQFVVISGKGGTGKTSVTAGLAAVGKDMVLADCDVDAADLHLVLAPEIRERHDFISGVVASIEPEACISCGLCTTHCRYGAIPQGYAPQVAPEHCEGCGVCAHVCPTGAARLSDRRCGEWYVSDTRFGPMVHAALGIGEENSGKLVSTVRTRARELAEARDASVVLIDGSPGVGCPVIASLAGADAALAVTEPTVSALHDLERVHALARHFDVRMAVLLNKADIHPGMAERIIGYCTTHDLPLVGRFGFSPLFVQAQLEGRTLPEQDSGEWRQRFNGVWNQLLALVLEHHHHHH	not soluble
MSLQRLNVEFRSEGVALRGWLYLPEARAERPAIVMTHGFSGVKEQYLDRYAEVFAAAGFVVLLYDHPNFGDSDGEPRQEIDPVMQRRGYRDAITWLGAQARVDASRIGIWGTSYSGGHVLEVAALDRRVKCVVAQVPTVSGHASALRRTRAEQLPALLASFDADRQRRFEGLPPALLPAVAASPDEPCAMAGADAHRFFTDSAALAPNWCNRVTLRSAELARENEPGIHIGRISPTPLLMIVADRDLLTPTDLCLEAYQRALPPKRLLMLAGGHFTPYIEHFDATSQAAADWFVRHLGEGGEQPATVVEEGGSHHHHHH	soluble
MGHHHHHHHHHHSSGHIDDDDKHMLEDPMATGDERFYAEHLMPTLQGLLDPESAHRLAVRFTSLGLLPRARFQDSDMLEVRVLGHKFRNPVGIAAGFDKHGEAVDGLYKMGFGFVEIGSVTPKPQEGNPRPRVFRLPEDQAVINRYGFNSHGLSVVEHRLRARQQKQAKLTEDGLPLGVNLGKNKTSVDAAEDYAEGVRVLGPLADYLVVNVSSPNTAGLRSLQGKAELRRLLTKVLQERDGLRRVHRPAVLVKIAPDLTSQDKEDIASVVKELGIDGLIVTNTTVSRPAGLQGALRSETGGLSGKPLRDLSTQTIREMYALTQGRVPIIGVGGVSSGQDALEKIRAGASLVQLYTALTFWGPPVVGKVKRELEALLKEQGFGGVTDAIGADHRR	soluble
GMPDSPTLLDLFAEDIGHANQLLQLVDEEFQALERRELPVLQQLLGAKQPLMQQLERNGRARAEILREAGVSLDREGLARYARERADGAELLARGDELGELLERCQQANLRNGRIIRANQASTGSLLNILRGQDAPSLYDSRGGTASSSRQRPLSQA	soluble
MYNKDDVLKQADNIANKIKNLDTIKTYQQIEAQIHQNQTIKTKMDMLKKHQKQAVNFQNYGKQNALEQSEHTIQSIEAEINTLPIVEQFQTSQYEANQLLKMFVSTMETRLNDHNKAKHSDLEHHHHHH	not soluble
SLAGVSYAAPWWVSLLHRLPHFDLRWEATSSQFRPEDADYQQAASAYGNGETSDGIHRATYSLRHANRTVAGVQDRVWDTAAALNRTAEPNLQSLERQLAGRQEPLRAVQRLQTGAARSSKGSAACSIPHTWQQKRGPDDDGEEETAPGPR	soluble
MVHDTFMKMPEVRRRRQPTHVLVAGGNQGLGNMTAFLRAARTSTLFRYSVLCGANKQLYHEIASWQLPHIRPLPYINSPEEMNQLYDEADAVITKPGGVTISELLHKRIPIFTIDCLPGQERINWQYLRRNGLIYHLAEPGNGERKMIRLLTDDVEKNRFFRRVSDYFAGVEKTGLEHHHHHH	not soluble
MGHHHHHHSHMAATKRKRRGGFAVQAKKPKRNEIDAEPPAKRHATAEEVEEEERDRIPGPVCKGKWKNKERILIFSSRGINFRTRHLMQDLRMLMPHSKADTKMDRKDKLFVINEVCEMKNCNKCIYFEAKKKQDLYMW	not soluble
MAHHHHHHMAIPPHGFIEAIHASPLRCVLYVMGAGSSAIAQLTSVAGCSRTLLDARVPYAMAAALQMLDDQPPKMVSATVARQMAQHAHHRAVEYSNGDDDGTLVGIGSTSAVQTNRIRHGKDSAFVAAWSQRQVVEFAMELPGHLARAEQEEQVTLLLFKALAECAKVPFEISFVVEPKRISYIVPDSPLRRLLQGEMKFLVFNTYGELRANFVPYVAETSFAVKPENSWKALLFPGSFRPLHWGHTELARAAVRAMATMKGTLNSTSTDTSSPSWNVPDASNVQVTYEIAVDNADKGIIDSDVELKKRVQQFLQRGARVAVTRARLFTEKALLFPGHGFIVGIDTMKRILDPKYYDNSREAMLRAMEFIREQGGYFVVAGRASGGKDAVWEDLTSIEVPAEVESMLISIRKEDFCVDVSSTMLRERNKSTC	not soluble
